The values that follow come from patent US20230383000A1.

The assay concerns the target human IL-1R3 on cells (SK-MEL-30, A549, HEK-293 and other human cell lines) (human) (UniProt Q9NPH3). The assay is described as follows: flow cytometry on SK-MEL-30 cells (high IL-1R3 expression), 1:2 dilution series from 20 µg/ml.

human IL-1R3 on cells (SK-MEL-30, A549, HEK-293 and other human cell lines) (human), sequence (Q9NPH3 21-570): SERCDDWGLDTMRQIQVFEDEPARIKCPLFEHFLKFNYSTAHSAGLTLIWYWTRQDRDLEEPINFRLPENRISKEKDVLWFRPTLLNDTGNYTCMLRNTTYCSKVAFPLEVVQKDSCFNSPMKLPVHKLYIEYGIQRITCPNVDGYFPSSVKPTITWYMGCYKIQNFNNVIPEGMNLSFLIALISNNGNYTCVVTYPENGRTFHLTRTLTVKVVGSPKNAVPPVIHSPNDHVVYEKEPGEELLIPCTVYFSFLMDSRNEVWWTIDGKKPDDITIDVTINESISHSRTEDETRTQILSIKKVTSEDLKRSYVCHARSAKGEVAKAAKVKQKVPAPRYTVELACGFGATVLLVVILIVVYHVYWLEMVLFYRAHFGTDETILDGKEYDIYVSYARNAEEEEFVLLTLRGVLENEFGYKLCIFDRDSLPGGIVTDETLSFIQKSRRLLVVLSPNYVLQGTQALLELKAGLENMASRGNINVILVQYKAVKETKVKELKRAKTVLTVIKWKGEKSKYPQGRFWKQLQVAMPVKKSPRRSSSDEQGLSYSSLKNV

B1: MAB-16-0030 (humanized anti-IL-1R3 IgG1-LALA antibody) (antibody, from another filing, V domains shown)
VH: EVQLEESGGRLVQPGTSLRLSCAVSGFSLSSYDMSWVRQAPGKGLEWVSTIYIGGTTAYASWPKGRFTISKTNSKNTLYLQMNSLRAEDTAVYFCARLQGANYYNSLALWGQGTLVTVSS
VL: DVQMTQSPSSLSASVGDRVTITCQASQSIYSFLSWYQQKPGQAPKLLIYAASDLESGVPSRFSGSGSGTDFTLTISSLQPEDFATYYCQCNYIIDYGAFGQGTKVVIKR
Turning to B1, the half-maximal effective concentration (EC50) came to 0.307 µg/mL.
